Here are results for 16 sequences from the DeepSol protein solubility set.

The nature of the data set: soluble on expression in E. coli; label from the status in PepcDB or PDB records.
Turning to “MSLSLWWKRAKARMTESVTYYQEPAFEKLLPDPDPTFERPYTLCLSLDDLLIHSEWTREHGWRIAKRPGVDYFIRYLSQYYELVLFTTTPYATGEPVMRKLDPFRLILWPLYREATKFEDGEIVKDLSYLNRDLSKVIIIDTKAKHVRNQPDNAIILDPWKGDKDDKNLVNLIPFLEYIHTMQYSDVRKVIKSFDGKDIPTEGHHHHHH”, the “soluble on expression in E. coli” value is on record as “not soluble”.

As for “MSLSMKKERGVVYTPLKISNYIIDSTISEEDIIKNPFLKIVDPACGCGNIIIPCFIYLRNIYIKNLDKINNINKLELREENINYHIIKNNLFGYDVDLNAIKVLTIDLFCESKCFSSNFLCKDFLLDEIGIKYDIFLSNPPYVGLKSINKEYSAILKTMYPSYKDKADISYCFFEKSILCLKIDGKLGFITSRYFLESQSGEELRRILVEKCSLYKIVDFYGIRPFKKAGIDTVMIFLERGIGDRKSIEIIKPKIMKNNRKDEFYYSLFNGTNEGIDKFYINIKALDSKRWILRKDEEIDIINKIEKNSEGHHHHHH”, the “soluble on expression in E. coli” value is given as “not soluble”. Then “MSLSNDRYSMSFTTGSLFHRESVKLAALYLDLGDWNSVRDKVIAENLLQTRTLNTLKRVCREIISRLRTMNPGELDFLVEGSHQEQAYLLWLAVCRRYRFIADFAVEVLRERYITLKADLTHEDFDSFFNRKSEWHLELDEITPATRSKLRQVLFKILREADLLAANNMINAAMLSPRLSDVIHRGSRRDVSYFPLFESDLKGMAKEGHHHHHH”, with “soluble”. “MSLSNYISIKGAKVNNLKNIDVNIPRNKLVVITGLSGSGKSSLAFDTLYAEGQRRYVESLSSYARQFLGRMSKPECDFIKGIPPAIAIEQKVNSRNPRSTVGTSTEIYEYLRLLYARVGKTYSPISGQLVKKHSIEDIVNCMLSFPKGTKYTVLTPMMPREGRTLLQQLEMDLKQGFTRIEVNREIVRIEDFLQQTAAEDKKQNIYLLVDRMTADDSKDSISRLTDSAETAMYEGDGNCLLRFYSADGSTQLFSFSTKFETDGIKFEEPNDQMFSFNSPLGACPECEGFGKVIGIDEHLVIPNRALSVYDGAVLCWRGEKMGEWLQEFIHEAPAHDFPIFAPYYELTQEQKDYLWHGPRNKACIDSFFKMLEENQYKIQYRVMLARYRGKTICPVCHGTRLKKEAGYVKVGGKSISQLVDLPIHDLKEFFRTLELDAHDTAIAKRILTEITNRINFLMDVGLGYLTLNRLSNSLSGGESQRINLATSLGSSLVGSLYILDEPSIGLHSRDTDRLIKVLRQLQELGNTVVVVEHDEEIIRAADYIIDIGPQAGRLGGQIVYQGNMNDLQRNEGHHHHHH”: the “soluble on expression in E. coli” value is “soluble”. For the sequence “MSLSPTKTRRILFLLPYVADLSVGDFSKGLNPVMQDKQIDVMMTTLDFLQNKTAKELINEFDGLIYYALDTEQHLDLLFELSLKEFPVVILDKKIYELPFPTVLSDNFQGGALAASYLIEQGHSKIAYLFGTQTHPQSVRQRYLGYLEALDKAGLTFHTSLDDKSATLDELLSYITKYEVTAFVCENDVVAIQTMNLLRQHGYHIPEDFSIIGFDDIQAAALVDPPLTTIAQDFEQLGKLAGDALVTWLETKDRPSDSKFPVSFIKRQSTKEGHHHHHH”, the “soluble on expression in E. coli” value was “soluble”.

For the sequence “MSLSQGALYLVPTPIGNLEDMTFRAIRMLKEADIIAAEDTRNTVKLLNHFEITTRMTSYHQFTKENKEDNIIQRMLDGEVVALVSDAGMPSISDPGYELVQSALNANIPVIPLPGANAALTALIASGLAPQPFYFYGFLPRQNKERTQAIEKLAAREETWILYESPHRLKETLKAIIKITGNDRKIVLCRELTKRFEEFLRGTVEDALNWAMDEEVRGEFCLIIEGNANPPLAEEQLWWQELDIKTHVSTVMEQENVSSKDAIKTVMKARNLPKREVYSAYHEIKEGHHHHHH”, the “soluble on expression in E. coli” value is listed as “soluble”.

“MSLSQNASVGIVMPQKIPFEMPLVLENGKTLPRFDLMIETYGELNAEKNNAVLICHALSGNHHVAGRHSAEDKYTGWWDNMVGPGKPIDTERFFVVGLNNLGGCDGSSGPLSINPETGREYGADFPVVTVKDWVKSQAALADYLGIEQWAAIVGGSLGGMQALQWTISYPERVRHALVIASAPKLSTQNIAFNDVARQAILTDPDFNEGHYRSHNTVPARGLRIARMMGHITYLAEDGLGKKFGRDLRSNGYQYGFGVEFEVESYLRYQGDKFVGRFDANTYLLMTKALDYFDPAADFGDSLTRALQNVKAKFFVASFSTDWRFAPERSHELVKALIAAQKSVQYIEVKSAHGHDAFLMEDEAYMRAVAAYMNNVYKECQQEGHHHHHH”: the “soluble on expression in E. coli” value is reported as “soluble”. In the case of “MSLSRIRKAPAGILGFPVAPFNTQGTLEEEALFQNIEFLLNEGLEAIFIACGSGEFQSLSQKEYEQMVEVAVSAAGGKVPVYTGVGGNLSTALDWAQLSEKKGADGYLILPPYLVHGEQEGLYQYAKTIIESTDLNAILYQRDNAVLSVEQIKRLTECEQLVGVKDGVGNMDLNINLVYTIGDRLGWLNGMPMAEVTMPAYLPIGFHSYSSAISNYIPHISRMFYDALKNGNDELVKELYRHVILPINDIRKQRKGYAVSLIKAGMEIMGLNVRNTARPPVGPVEKDHYQQLEAILKQPADRFPKKEGHHHHHH”, the “soluble on expression in E. coli” value is “soluble”.

As for “MSLSRTIEDRAAEFAIQPSYHALGGEFVRAPVETLREMLGAFGISLDGPPPDRAPPEMRAPDGYRCFLPEGEMRRWGIAAQLYQLRSERNWGIGDFADLCDLARIGGAAGADFIGLNPLHALFLANPAHTSPFSPSNRRFLNPLYIAVDRVPGYRPEFAPEGLGQLRAPDLVDYPAVAAAKLGALRRLWREGPDDAMGFMRFCAEGGELLRRHALFEAISGQMVADGYGAGWLGWPVEFHDAEGQAVIDFADARGDEVGFHLWLQWIADRQLEEARDACRAAGMKIGLYLDFAVGEVPDGSSTWSDPSLAVPGLRIGASPDWFNAQGQDWGLAPLSPVKLADLRAAPFGALMQDATRRAGALRIDHAMGVWQLFLIPDGMGAPQGTYVRYPIEDMLRALAEASCRNRTIVIGEDLGNVPDGFRELMARMNILSYRILLFERHDHGYIAPEHYPREALVCLSTHDLPTFRGWWRGDDVAIRRDFRLISDEAARQQGDFRWTERRQLLEDLARAGLMAWDEIDRIGPDDPPEALVVAVHRHLARAPSRLFAVRIEDMAGEVAPVNVPSTVDEHPNWRRRLGVPLEALGETALFRGIAGALEAEREGHHHHHH”, the “soluble on expression in E. coli” value is “soluble”. In the case of “MSLSTARLPENAERNRFQDVLPYDDARVELVPTKENNTGYINASHIKVSVSGIEWDYIATQGPLQNTCQDFWQMVWEQGIAIIAMVTAEEEGGREKSFRYWPRLGSRHNTVTYGRFKITTRFRTDSGCYATTGLKMKHLLTGQERTVWHLQYTDWPEHGCPEDLKGFLSYLEEIQSVRRHTNSTSDPQSPNPPLLVHCSAGVGRTGVVILSEIMIACLEHNEVLDIPRVLDMLRQQRMMLVQTLCQYTFVYRVLIQFLKSSRLIEGHHHHHH”, the “soluble on expression in E. coli” value is “not soluble”.

As for “MSLSTIAIFGSYVLSRKDGAQDVLRDHWVLVEGKKIAAVTRDRPRADEVYDRPGRFVLPGLLNLHNHCFSEAVARSHSEDGTGRKNNQSIVYTVLLPLTKRGADILSAEERMAVARLGILQLLKGGATTVMEPFRNSIPEMFDAAEEMGIRFYGAPYLFSTSDAKAGPDGVVQYSGDDGTADMATWDALYQRWNNRGDGRISLAMSPHATDTCGPDLLKACAARARELGVPITTHMAQSRAEVETIGKRYGGRTPAQYLDWLGLLAPDLMAAHCMFSTDDDLKLMAARGMTVLNCPRVFARAGVTAAFSRFAEHGVRTVVGTDGYNMDLLGELNAASLISKITSQRADVANSPELIEANTAVAADVIKRPDLGRIEPGATADLTVVDLTHPHLQPLFDPRRALIALANRANIDQVMVDGRVLVDGGRYLGADEAAITAAGSAAIGKIWDLPEAQAAFNGEGHHHHHH”, the “soluble on expression in E. coli” value is given as “soluble”. “MSLSTQSEAALEAGLIATLRQMDYEYVQIVEEDNLYANFKRQLEIHNRKRLEEHGRTEFTAEEFEKILIYLEGGTRFEKAKKLRDLYPLDTADGQRIWVEFLNRQQWCQNEFQVSNQITVEGRKKCRYDVTILINGLPLVQIELKRRGVELKQAYNQIQRYHKTSFHGLFDYIQLFVISNGVNTRYFANNPNSGYKFTFNWTDAANHPFNELDKFAVFFLEKCTLGKIIGKYIVLHEGDKCLMVLRPYQFYAVEKILDRVQNSNDNGYIWHTTGAGKTLTSFKAAQLVSELDDVDKVMFVVDRHDLDTQTQSEYEAFEPGAVDSTDNTDELVKRLQSNSKIIITTIQKLNAAVSKTWYSSKIDAIRHSRIVMIFDECHRSHFGDSHKKIMKFFGNAQIFGFTGTPIFTENAVDGHTTKEIFGNCLHKYLIKDAIADENVLGFLVEYYHGNEIVDNDNQARMEEIAKFILNNFNKSTFDGEFDALFAVQSVPMLIRYYKIFRSLNPKIRIGAVFTYAANNSQDDEQTGMGTGQYAKESVGEADELQAIMDDYNENFGTSFTTENFRAYYDDINLRMKKKKADMKPLDLCLVVGMFLTGFDSKKLNTLYVDKNMEYHGLLQAFSRTNRVLNEKKRFGKIVCFRDLKNNVDTSIKLFSNSDNPEDIVRPPFEKVKQEYKSLSTDFLQKYPTPSSIDFLQSENDKKNFVLAFRDIIRKHAEIQIYEDYSEDAEDLGMTEQQFNDYKSKYLDITVGFIDPPAAPSTVAEDPVPYGNNQGLEDIDFCLELLHSDIINVAYILALINDLDPYSDDYSEKRQNIIDTMIKDAGMRGKAKLIDGFIKKNVDEDKENFMNGRNKADGTNELEERLNQYIVSERNKAVNDLADEEQISAEVLNHYMKEYDYLQKEQPEIIQKALKEKHLGLIKTRRALTRIMERLRSIIKTFNEGHHHHHH”: the “soluble on expression in E. coli” value is reported as “soluble”.

Turning to “MSLSVTDVAGRTVSFDAQPKRILLAEGRALMATSVLNKENPAKDVVAIGADLHKAAPSFESALRQARPQVSKLPMIGSIAKGDVTVENMLSFKPDAVVMTLDQKEAAEKAGFLQKMDQAKLPYVFIDFRRKPLENTTKSMATLGKIFGGKAISRAKEFNKFYQSKVDDVSRRVSRESDKPRTFLWRAAGLKDCCSTYANLNLGDVITAAGGHNLGADLLRTSAGDVTPEKIVATQPEHIIATGGSWAKDPKKPESVPHVELGYNVTDDDAQRTLAGLLKTPGFSLLKAPKDGKLHAVYHQFYDSPFNVFALEQFAAWQHPKQFKGVDLTKDFAKFHEDYLPFGYRGVFFVTLKEGHHHHHH”, the “soluble on expression in E. coli” value is “soluble”. Then “MSLSYTEEWVTARARGAYEHGRASFDVRPERTALLVIDMQDEFVRPGWSPYWVPAATRMAPRLRRLIEGCRSAAVPVIWSIFDDTHLGLDRPKALGYLPHADTDWRRPGPAEVWDQMGRRPDEALIRKPSYGAFYDTPLDTMLRNLGRDTVIVTGTLTNYCCGTTARQAYERGYKVVFGADVTATDDESRQEPELAVLRKGFALVLTAEEITNQLAEGHHHHHH”, with “soluble”.

As to “MSLTAPHIVDPAGLLGEALSEASPDLMRSLLQTVINALLSADADAVVGAEWGQPTPGRRSQRNGYRHRGLDTRVGTIDVAVPKLRKGTYFPDWLLERRKRAESALITVVADCYLAGVSTRRMDKLVKTLGIDSLSKSQVSRMATDLDEHVEQFRHRPLDSAGPFTFVAADALTMKVREGGRVVNGVVLLATGVNGDGHREVLGMRVVTSETGPAWNEFFADLVARGLAGVRLVTSDAHAGLREAIAANLPGAAWQRCRTHYAANLMSICPKSMWPAVKAMLHSVYDQPDAPAVAAQFDRLIDYVTDKLPAVAEHLSAAREDILAFTAFPKDVWTQIWSNNPAVIWSPAVGVVDVRHEASGSLVLLSGRGYLQPSRKQSLRRKSACYTGGFANLVGEGHHHHHH”, the “soluble on expression in E. coli” value was “soluble”. The result for “MSLTAYQASSQARVDAAMHTLFTAPSPELARLYEAMRYSVMNGGKRVRPLLAYAACEALGGKPEQANGAACAVELIHAYSLVHDDLPAMDDDDLRRGQPTTHKAFDEACAILAGDGLQSLAFSALLDPALSDASAEIRLRMVTTLAQAAGPAGMVGGQAIDLGSVGLKLDQQALEYMHRHKTGALIEASVILGALASGRAEKGELKALQTYAQAIGLAFQVQDDILDVESDTATLGKRQGADIARDKPTYPALLGLAAAKEYALELRDQALHALRPFDAAAEPLRELARYIVERRSEGHHHHHH” reads “soluble”.
